According to patent publication US20190284240A1 (OHIO STATE INNOVATION FOUNDATION, published 2019):
Square brackets hold non-standard residues; d marks the D form. Pmp = N[C@@H](Cc1ccc(CP(=O)(O)O)cc1)C(=O)O; pY = N[C@@H](Cc1ccc(OP(=O)(O)O)cc1)C(=O)O; 2Nal = N[C@@H](Cc1ccc2ccccc2c1)C(=O)O

Tests used:
[1] = target: T1, Grb2 SH2 domain (UniProt P62993 60-152, limits assumed); test: fluorescence anisotropy, direct binding of the FAM-labeled ligand to the Grb2 SH2 domain
T1 construct: domain: SH2 domain

[2] = target: T2, Kelch-like ECH-associated protein-1 (Keap1) (UniProt Q14145 321-609, limits assumed); test: fluorescence anisotropy competition assay; reference BH15
Procedure: (§1) The percentage of inhibition was calculated from the fluorescence anisotropy decrease by using equation
(§2) and plotted against the inhibitor concentration.

[3] = target: T2, Kelch-like ECH-associated protein-1 …; test: fluorescence anisotropy competition assay, displacement of the fluorescent Nrf2 peptide from Keap1
Procedure: as §1, §2

[4] = target: T1, Grb2 SH2 domain; test: FP-based competition assay, unlabeled peptide against the FAM-labeled reporter ligand on the Grb2 SH2 domain
[5] = target: T2, Kelch-like ECH-associated protein-1 …; test: fluorescence anisotropy competition assay; reference peptide not named (34-fold matches BH17, […] nM)
Procedure: as §1, §2

[6] = target: T1, Grb2 SH2 domain; test: binding to the Grb2 SH2 domain; reference BH23
[7] = target: T1, Grb2 SH2 domain; test: binding to the Grb2 SH2 domain; assay not named, presumably the same FP competition assay
[8] = target: T2, Kelch-like ECH-associated protein-1 …; test: fluorescence anisotropy competition assay; reference BH13
Procedure: as §1, §2

[9] = target: T2, Kelch-like ECH-associated protein-1 …; test: fluorescence anisotropy competition assay; reference BH17
Procedure: as §1, §2

T2 sequence (Q14145 321-609 limits assumed): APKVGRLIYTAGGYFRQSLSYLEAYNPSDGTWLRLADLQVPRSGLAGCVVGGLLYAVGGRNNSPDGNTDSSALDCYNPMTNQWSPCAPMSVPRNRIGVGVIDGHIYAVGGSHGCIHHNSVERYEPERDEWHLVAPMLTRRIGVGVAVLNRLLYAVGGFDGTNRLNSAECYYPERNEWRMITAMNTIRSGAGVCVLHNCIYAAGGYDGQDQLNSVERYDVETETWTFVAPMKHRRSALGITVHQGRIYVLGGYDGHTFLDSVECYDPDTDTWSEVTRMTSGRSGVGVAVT
T1 sequence (P62993 60-152 limits assumed): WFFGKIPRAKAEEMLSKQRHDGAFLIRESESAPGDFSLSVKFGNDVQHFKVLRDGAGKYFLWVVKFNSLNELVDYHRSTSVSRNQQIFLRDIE

For cyclo(AApYVNFFQ)-β-Ala-K(FAM) (peptide), which Kd [1] is on record?
The Kd was 92 nM.

B1: BH16 (peptide)
peptide: cyclo(FF[2Nal][dR][dP]PRRFLNAETGE)
SMILES: CC(C)C[C@@H]1NC(=O)[C@H](Cc2ccccc2)NC(=O)[C@H](CCCNC(=N)N)NC(=O)[C@H](CCCNC(=N)N)NC(=O)[C@@H]2CCCN2C(=O)[C@H]2CCCN2C(=O)[C@@H](CCCNC(=N)N)NC(=O)[C@H](Cc2ccc3ccccc3c2)NC(=O)[C@H](Cc2ccccc2)NC(=O)[C@H](Cc2ccccc2)NC(=O)[C@H](CCC(=O)O)NC(=O)CNC(=O)[C@H]([C@@H](C)O)NC(=O)[C@H](CCC(=O)O)NC(=O)[C@H](C)NC(=O)[C@H](CC(N)=O)NC1=O
notes: also called cyclo(F-F-Φ-r-p-P-R-R-F-L-N-A-E-T-G-E)
How did the “fold decrease in affinity vs BH15” value [2] turn out when B1 was run?
Its value is roughly 10 fold.

What about the IC50 [3] of the same molecule?
The IC50 was 1470 nM.

B2: BH25 (peptide)
peptide: cyclo(FA[dA][dP]PRR[pY]VN)
SMILES: CC(C)[C@@H]1NC(=O)[C@H](Cc2ccc(OP(=O)(O)O)cc2)NC(=O)[C@H](CCCNC(=N)N)NC(=O)[C@H](CCCNC(=N)N)NC(=O)[C@@H]2CCCN2C(=O)[C@H]2CCCN2C(=O)[C@@H](C)NC(=O)[C@H](C)NC(=O)[C@H](Cc2ccccc2)NC(=O)[C@H](CC(N)=O)NC1=O
notes: Control peptide: the Nal-arg of BH23 is replaced with Ala-ala; also called cyclo[F-A-a-p-P-R-R-pY-V-N); negative control peptide BH25
B2 was tested. Which IC50 [4] did it give?
The IC50 was 100 nM.

B3: BH19 (peptide)
peptide: cyclo(F[2Nal][dR][dP]PRRFNAETGE)
SMILES: C[C@@H]1NC(=O)[C@H](CC(N)=O)NC(=O)[C@H](Cc2ccccc2)NC(=O)[C@H](CCCNC(=N)N)NC(=O)[C@H](CCCNC(=N)N)NC(=O)[C@@H]2CCCN2C(=O)[C@H]2CCCN2C(=O)[C@@H](CCCNC(=N)N)NC(=O)[C@H](Cc2ccc3ccccc3c2)NC(=O)[C@H](Cc2ccccc2)NC(=O)[C@H](CCC(=O)O)NC(=O)CNC(=O)[C@H]([C@@H](C)O)NC(=O)[C@H](CCC(=O)O)NC1=O
notes: also called cyclo(F-Φ-r-p-P-R-R-F-N-A-E-T-G-E)
What does the source list for B3?
fold reduction in inhibition potency [5]: 34 fold; IC50 [3]: 5540 nM

B4: BH13 (peptide)
peptide: cyclo(FF[2Nal][dR][dP]PRRFQLDPETGE)
SMILES: CC(C)C[C@@H]1NC(=O)[C@H](CCC(N)=O)NC(=O)[C@H](Cc2ccccc2)NC(=O)[C@H](CCCNC(=N)N)NC(=O)[C@H](CCCNC(=N)N)NC(=O)[C@@H]2CCCN2C(=O)[C@H]2CCCN2C(=O)[C@@H](CCCNC(=N)N)NC(=O)[C@H](Cc2ccc3ccccc3c2)NC(=O)[C@H](Cc2ccccc2)NC(=O)[C@H](Cc2ccccc2)NC(=O)[C@H](CCC(=O)O)NC(=O)CNC(=O)[C@H]([C@@H](C)O)NC(=O)[C@H](CCC(=O)O)NC(=O)[C@@H]2CCCN2C(=O)[C@H](CC(=O)O)NC1=O
notes: The underlining is not visible, so the entry may be only part of the peptide; also called cyclo(F-F-Φ-r-p-P-R-R-F-Q-L-D-P-E-T-G-E)
For B4, which IC50 [3] is on record?
The IC50 was 153 nM.

B5: BH26 (peptide)
peptide: cyclo(F[2Nal][dR][dP]PRR[Pmp]VN)
SMILES: CC(C)[C@@H]1NC(=O)[C@H](Cc2ccc(CP(=O)(O)O)cc2)NC(=O)[C@H](CCCNC(=N)N)NC(=O)[C@H](CCCNC(=N)N)NC(=O)[C@@H]2CCCN2C(=O)[C@H]2CCCN2C(=O)[C@@H](CCCNC(=N)N)NC(=O)[C@H](Cc2ccc3ccccc3c2)NC(=O)[C@H](Cc2ccccc2)NC(=O)[C@H](CC(N)=O)NC1=O
What does the source list for B5?
fold less potent than BH23 [6]: ~3 fold; IC50 [7]: 1370 nM

B6: BH14 (peptide)
peptide: cyclo(FF[2Nal][dR][dP]PRRFQLNAETGE)
SMILES: CC(C)C[C@@H]1NC(=O)[C@H](CCC(N)=O)NC(=O)[C@H](Cc2ccccc2)NC(=O)[C@H](CCCNC(=N)N)NC(=O)[C@H](CCCNC(=N)N)NC(=O)[C@@H]2CCCN2C(=O)[C@H]2CCCN2C(=O)[C@@H](CCCNC(=N)N)NC(=O)[C@H](Cc2ccc3ccccc3c2)NC(=O)[C@H](Cc2ccccc2)NC(=O)[C@H](Cc2ccccc2)NC(=O)[C@H](CCC(=O)O)NC(=O)CNC(=O)[C@H]([C@@H](C)O)NC(=O)[C@H](CCC(=O)O)NC(=O)[C@H](C)NC(=O)[C@H](CC(N)=O)NC1=O
notes: also called cyclo(F-F-Φ-r-p-P-R-R-F-Q-L-N-A-E-T-G-E)
How did the “fold decrease in affinity vs BH13” value [8] turn out when B6 was run?
Its value is roughly 10 fold.

And the IC50 [3]?
Its IC50 is 1400 nM.

B7: BH18 (peptide)
peptide: cyclo(F[2Nal][dR][dP]PRRFLNAETGE)
SMILES: CC(C)C[C@@H]1NC(=O)[C@H](Cc2ccccc2)NC(=O)[C@H](CCCNC(=N)N)NC(=O)[C@H](CCCNC(=N)N)NC(=O)[C@@H]2CCCN2C(=O)[C@H]2CCCN2C(=O)[C@@H](CCCNC(=N)N)NC(=O)[C@H](Cc2ccc3ccccc3c2)NC(=O)[C@H](Cc2ccccc2)NC(=O)[C@H](CCC(=O)O)NC(=O)CNC(=O)[C@H]([C@@H](C)O)NC(=O)[C@H](CCC(=O)O)NC(=O)[C@H](C)NC(=O)[C@H](CC(N)=O)NC1=O
notes: also called cyclo(F-Φ-r-p-P-R-R-F-L-N-A-E-T-G-E)
For B7, which “fold decrease in affinity vs BH17” value [9] is on record?
The value was roughly 10 fold.

What about the IC50 [3] of the same molecule?
Its IC50 is 1400 nM.

B8: BH23 (peptide)
peptide: cyclo(F[2Nal][dR][dP]PRR[pY]VN)
notes: also called cyclo(pY-V-N-F-Φ-r-p-P-R-R); cyclo[F-Φ-r-p-P-R-R-pY-V-N)
How did the IC50 [4] turn out when B8 was run?
Its IC50 is 400 nM.
